{"source": "a protein production outcome set (Wang et al. 2014)", "data": [{"experiment": "label from the status in PepcDB records", "values": [{"sequence": "MLNKVLTHLDENIEKSLERLFSLLRFQSISTDFAYKDECRKAADWLVEDLKSIGFKASRRDTSGHPMVVGHHPGPSDDCLHVLFYGHYDVQPVDPLNLWEDDPFTPSLKEREGEKVICARGASDDKGQLMTFIEACRAFKKETGQLPVRVTVLFEGEEESGSSSLVPFLKANKDELKADCALVCDTSMWDADTPSVSVALRGILGEEIIITAANRDLHSGYFGGAAANPIRILTKVLAGLHDENNRVTLPGFYDGVEETPPHILQSWNALNCTAENFLGPIGLSLPAGEKGRSVLELVWARPTAEINGISGGYEGEGIKTVIASQASAKVSFRLVHKQDPEKIRQAFRDYVCSLIPADCSVVFKEHGASPAIQLPYDSPFIKATKDALSQEWNNPALLTVMGGSIPIVADFQSILDMETLLVGFALADDRIHSPNEKYNLKSFHKGQRSWARILATLAKTGG", "protein production": "not failed"}, {"sequence": "MLNNKRLFTSESVTEGHPDKIADQVSDAILDAILKDDPNARVACETTVTTGMALIAGEISTTTYVDIPKVVRETIKEIGYTRAKYGYDYETMAILTAIDEQSPDIAQGVDKALEYRDKDSEEEIEATGAGDQGLMFGYATNETETYMPLAIYLSHQLAKRLSDVRKDGTLNYLRPDGKVQVTVEYDENDNPVRIDTIVVSTQHAEDVTLEQIQEDIKAHVIYPTVPENLINEQTKFYINPTGRFVIGGPQGDAGLTGRKIIVDTYGGYARHGGGCFSGKDPTKVDRSAAYAARYVAKNIVAAGLADQCEVQLAYAIGVAEPVSIAIDTFGTGKVSEGQLVEAVRKHFDLRPAGIIKMLDLKQPIYKQTAAYGHFGRTDVLFPWEKLDKVEELKDAVK", "protein production": "failed"}, {"sequence": "MLNPFEKLQIPPKANQTIDTMLKRLPKIGGTTVRDREIRRLKEYYERIKKYYDFVEQFPKIDELHPFYLEATRIMTDINKLRICLSVTKKTSVISMKILKKYINQIRKSPENESNRIMRQAFGRVSSVLRKSSECIDRVIDVAKELKKIQGIDPTLPTIVVAGPPNVGKSTLVSKISTAKPEIASYPFTTKEVHVGHVILDDFRIQVIDTPGILDRPEAERNRIERKATNAIRNLNGIIVFMFDSSISSVLSVEGQIELFREVKLLKKIVIPVINKIDEKYEEYYKKIVDFLLSEGNEWHEISAEKGIGIDKLKEELFNLVKSSGTNEVSRD", "protein production": "failed"}, {"sequence": "MLNQSNELNAWDRDHFFHPSTHMGTHARGESPTRIMAGGEGVTVWDNNGRKSIDAFAGLYCVNVGYGRQKIADAIATQAKNLAYYHAYVGHGTEASITLAKMIIDRAPKGMSRVYFGLSGSDANETNIKLIWYYNNVLGRPEKKKIISRWRGYHGSGVMTGSLTGLDLFHNAFDLPRAPVLHTEAPYYFRRTDRSMSEEQFSQHCADKLEEMILAEGPETIAAFIGEPILGTGGIVPPPAGYWEKIQAVLKKYDVLLVADEVVTGFGRLGTMFGSDHYGIKPDLITIAKGLTSAYAPLSGVIVADRVWQVLVQGSDKLGSLGHGWTYSAHPICVAAGVANLELIDEMDLVTNAGETGAYFRAELAKAVGGHKNVGEVRGDGMLAAVEFVADKDDRVFFDASQKIGPQVATALAASGVIGRAMPQGDILGFAPPLCLTREQADIVVSKTADAVKSVFANL", "protein production": "not failed"}, {"sequence": "MLNTFMFPGQGSQAKGMGGALFDRFADLTAQADAVLGYSIRALCVDDPRDELGRTQFTQPALYVVNALTYYAKCEDSGETPDFLAGHSLGEFNALLAAGCFDFETGLKLVARRAELMSQARDGAMAAIVNASREQIERTLDEHGLVDTAIANDNTPSQLVISGPAHEIARAEALFQHDRVRYLRLNTSGAFHSKFMRPAQQAFAAHLQSFRLADPAIPVISNVSARPYENGRVSEGLAQQIASPVRWCESIRYLLALAAERGEAIEFTELGHGDVLTRLVHTIRRQTPAPAAAATSARARPTPPGEPERPAQQTAAAPRASDSASASLGAAERVAAWNRDYPVGTRVRSSLIHDDVLETRTPATVLFGHRAAVYMKGYNGYFDLAEVTPA", "protein production": "not failed"}, {"sequence": "MLPDDVNQADVLADVTAAFYRYEKALTGNDVAVLDELFWHDEKTVRYGAGENLYGIEEIRAFRLARPSAGLDRALRNTVITTYGHDMAVASTEFTRTGSTKIGRQMQTWVKMPEGWRIVAAHVSLMSE", "protein production": "not failed"}, {"sequence": "MLPKIIDLFSGCGGLALGFEKAGFDIVAGIELMPEACKTISYNLSWRYGKKETHICGDITEIEASVFKNSFGDEGCIVIGGPPCQAYSMAGRGKLRSLGEDRVNIKDARGYLYQDFLRFVFELEARAVVMENVPESTNFGGKNIPEIVCTELTKKGYKAYWTILNSADYGVPQVRERVFVVAIKGDEGKEIKLPNPTHRNEVDVLTQHQKRFEGYKQCQFFVEPNGTTDELKPWVTVGDAFSDLPEVFPTADSKYKLVSLNIEYPYKTEAQNEYQELMRTWYGKEGFGVSANAFRRNTRDFPIFERMQQGDNYIAATKIAEELFYEEAKLFGYEKDSEEYISLYNKMVPQYDKDKFENKWKRLDETKPSHTLVAHLAKDTYSHIHPIEPRGITVREAARLQSFPDDFFFDCSMGDAFKQIGNAVPPLLAYGVARTVLNTFEEE", "protein production": "failed"}, {"sequence": "MLPSRKTKRVFSCDFTPGRKRRRCVVVPSSVSPVPENTTGADLLDSIPDDLVISILCKLGSTSRCPADFINVLLTCKRLKGLAMNPIVLSRLSPKAIAVKAHNWSEYSHRFLKRCVDAGSLEACYTLGMIRFYCLQNRGNGASLMAKAAISSHAPALYSLAVIQFNGSGGSKNDKDLRAGVALCARAAFLGHVDALRELGHCLQDGYGVPQNVSEGRRFLVQANARELAAVLSSGIQARSTWLSLSQPPPPVVPNHGQQTCPLLSDFGCNVPAPETHPANRFLADWFAVRGGDCPGDGLRLCSHAGCGRPETRKHEFRRCSVCGVVNYCSRACQALDWKLRHKMDCAPVQRWLEEGDGGEGNVQIDGNGNGDNVLLPMS", "protein production": "failed"}, {"sequence": "MLPVLETTAHSPLTIVWFVLITVLWVGFFFLEGFDFGVAMLLPFLGRDDKDRRLMVNTIGPTWDGNEVWLLTAGGATFAAFPGWYATMFSGLYLPLLLVLLGLIVRGVAFEYRSKNPSSSWRNAFDWMATIGSFLPTLVLGVGFANFVRGLAVGPHSTPDGGTAPLVTTSFWGLFTPFALIGGILFVVLFCAHGANFVALKTMGDMHDRARKTSAKLGWIATVVALVWALMFNIMYVTRDGRQVLTWIICLLVVVLLAAGSAVVAKGREGLAFLCTALGIALMIVACMFAMYGNLGYRPSGIAFDMWIASATGRTLKIMTISACVFVPIVLAYQVWSYWVFRKRLTREAIPDTAVAA", "protein production": "failed"}, {"sequence": "MLQHRCPVRRILVHYIAHWSRLRSILPTFAAIVRRPFRVCKTMNQPSSKPTPAVTFRLSKAELVLVFITMLWGGTFLLVHNVMTVSGPMFFVGLRFAAAALFVGVVSARALPGLTFTELKAGMLIGVSIMLGYGLQTMGLQTISSSQSAFITALYVPFVPLLQWLVLGRRPGLMPSMGICLAFIGLMLLAGPEGGSLRFSEGELVTLISAVAIAGEIILISRYAGQVDVRRVTVVQLATASLLAFLMIVPTQERIPDFSWLLLASAVGLGAMSAVIQVAMNWAQKSVSPTRATLIYAGEPVWAGIVGRLAGERLPGVALLGGLLIVVAVVVSELKVRRPRETVETRDVQNPGERQAGL", "protein production": "failed"}, {"sequence": "MLQIIVPMAGAGSRFAVAGYTDPKPLIPVHGVPMIKVVIDNLTPDCPHRFIFICQAEQVAAYGLREKLNAWAPGCGIVELGGLTGGAACTVYAARHLINYDQQVMIANSDQYVDVDINAYLHAMNECDAAGLIMTMKASDPKWSFVGFDSQGHINRVVEKEVISDEATVGIYNFRSGGQLVSAIEAMVLKDLRVNGEFYVAPAYNELIEQGAKVIHYSIGAEGHGMYGLGIPVDLNLFLSLPLSRQAASGVGNLEHHHHHH", "protein production": "failed"}, {"sequence": "MLQKDPCLDDILENSEKLENNSNKKNIDSIDTIKLSDIIEKMIEINSIVRIEKIFEEKIVSQNPVVNVVVNDGSARGLLSLWSEQISLLNELNEGDAILIENAHAPKKYKDRIHLALSKSGKISKIESDLPTIDELLKKSSAQRNDFSRKSISELKEGIGAELRGLIVAIHSKEPYFPVCDKCNKKMTLKKGYAVCKCGNKVDEEDENLKWLFLCTCTLDDGSGTIRVTLNNNTNYLDLEELKKIIIDDEEILDVLNNKLLGLDILTSGFTIYDEYLKDTAFRCNNWNKIDIMEEFNKKLKGLEHHHHHH", "protein production": "not failed"}, {"sequence": "MLQLDHRHSIELHFAIPVSLPGCLSGAEVVADWPLDARSSGRQTSVSEAAGAGPVDRMNKEHYPFRMFLLGPFALVDAGGRSVAPKSKKAQALLAMLALSTRGSRSRIWLRDKLWSDRSDDQAAASLRQALLDIHKSLGPARDLLIADKNTVWLDTDRLLLDTDLMIRTERSPDQVTDELLEGIDIRDPEFEDWLALERQNWYRRLDEGQVHDVFEPRQQPSRDIAKHSALLPLTGAPDTSRTGKPVDIASSGPYGRRVGGDWQWMMALQSPIVVGAGEGGQIAATRFQNLIAKAIIDGLGFGVTDLSFTLPHIEENEQQISLPICLQLRLTFDGDMVLIELVMKHLINNRIHWLGSQAINRTQFERGEFGIAAALISQAVDQLAYFQEIQATDSRLSQDGLLIDAVNAIFRLSRDDLDNAERRLEEQIQYQPRSSTFAWLSFIRTFQVGQRFNALDAHLIEEAQAYARKALELDPQNSVSLALVGHVHSFLFGEYDYAANLFEKSIRLNPALPLGWDLYAMLHCYAGQPDKAVAMARWVQELGVYSPHKYYFDTTKCIAAALAGDHAAAITAGEEALRARPNFNSLLRYLASSHAHSNDLGSARHYLQRLEAVEGGFSINDFRGSGYPLLDTGGGQILIDGLLKAGAKLR", "protein production": "failed"}, {"sequence": "MLQSKVFKYSRWDIACCLVIPFQISVYALLAYYYQSMSLLALLGMIPVLFALSLQNAGANHNHYHTPFFRIRWMNTLTRMGFSATEAPKTPYNIGHGIHHATHQSWNDKSILAVLGLKRSIAQQLISFGLFIFESLGVKYFTLLVLLKYWPIERVAVLASPEDPVLAARALKKLLEPAKLKAAKYDLAAWFLFRLVLCVVDWQFFFFYFIPVTYLIDTLRQGENYFQHWGATDPNDPKRDSVSCYSTLYNLLTFNLGYHQEHHYKPGLHWLKLPELTKELPSDRHTVPYSHYLNSPLMFPERASQLRKENVADVSP", "protein production": "failed"}, {"sequence": "MLQTINKTLGKIMPLLTPLSVVSGVLLADYLNGLASLVPWIFAFMTFAGSLGANFQSLKTAVAHPLPMFLALFVLHIFMPVLAWSTGHLVFSGDSLTITGLTLGVVIPTGITSMIWAAMYKGNIGLTLSIILVDTILSPFIVPFSLSILAGAHVEMDVIGMMKGLVGMIVIPSLLGMLVNQFSTPERTVRLSANCAPFSKVGLAAVVAINSSVVAPYLKNVDLKFLTIAVTVFLVAFTGYLTAWLIGRLMKRPQEEIVALIFTGGMRNISAGAVLATSFFPPQVAVPVVIGMLFQQILAALFGHLLARSELKKAHHLDKKTSLPS", "protein production": "failed"}, {"sequence": "MLRKKHFSWMLVILILIAVLSFIKLPYYITKPGEATELASLIKVEGGYPEKGSLSLMTVKVGPANPFTYVWAKMHPYYEIVPDESIKEEGESDKEYMKRQLQMMKSSQENAVIAAYQKAGKKVSYSFNGIYASSVVENMPAKGKIEVGDKIISADGKNYQSAEKLIDYISSKKAGDKVTLKIEREEKEKRVTLTLKQFPDEPDRAGIGVSLYTDRNVKVEPDIDFEIENIGGPSAGLMMSLEIYNQLTKPDETKGYDIAGTGTIDVDGKVGPIGGIDQKVVAADKAGKDIFFAPNQNGASNSDYKNAVKTAKDIDSNMKIVPVDTMQDAIDYLNKLKAKQPDSQVLFLYI", "protein production": "failed"}, {"sequence": "MLRLVKTRPSLRLGPSETAVIRVLDQERIDRINQDLTRAWKADVETTCVLSGILLLPCLILICLLDGPLFAKVILCTFLCLMVGGWCIAKWLNAQAQPRTDITGVKVEQLEGYFDRRWVRNGGKPYIEYSFGKHWLHIQTSACSFFSGDTQLKLNRRYRVDALYLTGHSSAYTGYYLLEETFKEIFDDSDLSAAEKIQIAEREKRINQDLEEQHKRLYRLYRNPQGELEAVAIGFNFAACFLTVLWSFCVSLYWVTGLTLAALGLILLIPDTGAGHPWFALGWLLSAGVFGACGNLWRERQVLSKGFVQVDALLSCNPDQAKVQYKRKVEEAAPGFGQ", "protein production": "failed"}]}]}
